Source: the supplement of paper PMC10567573

B1: IKZF1 (parent)
chain: YHSQDRYEFSSHITRGEHRFHMS
B2: STX5 (parent)
chain: RSEFTLMAKRIGKDLSNTFAKLEK

Variants of: B1
Experiment: protein stability index of a GFP-peptide fusion (GPS, HEK-293T) (PSI 1-6); higher = more stable
Details: c terminus: native
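Also: lentivirally expressed fusions sorted by FACS into six bins by GFP to DsRed ratio, PSI derived from sequencing read proportions per bin multiplied by bin number.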

| Variant | protein stability index |
| --- | --- |
| YHSQDRYEFSSHITRGEHRFHMH [S23H] | 2.23 |
| YHSQDRYEFSSHITRGEHRFHMQ [S23Q] | 2.68 |
| YHSQDRYEFSSFITRGEHRFHMS [H12F] | 2.04 |
| YHSQDRYEFSSPITRGEHRFHMS [H12P] | 2.27 |
| YHSQDRYEFSSSITRGEHRFHMS [H12S] | 3.03 |
| YHSQDRYEFSSHITRGEHRFHIS [M22I] | 2.48 |
| YHSQDRYEFSSHITRGEHRFHYS [M22Y] | 1.56 |
| YHSQDRYEFSSHITRGEHRFHAS [M22A] | 2.58 |
| YHSQDRYEFSSHITRGEHRFHQS [M22Q] | 2.11 |
| YHSQDRYEFSSHITRGEHRFHDS [M22D] | 1.94 |
| YHSQDRYEFSSHITRGEHRFHLS [M22L] | 1.4 |
| YHSQDRYEFSSHITRGEHRFHWS [M22W] | 1.65 |
| YHSQDRYEFSSHITRGEHRFHGS [M22G] | 3.65 |
| YHSQDRYERSSHITRGEHRFHMS [F9R] | 1.67 |
| YHSQDRYEPSSHITRGEHRFHMS [F9P] | 1.73 |
| YHSQDRYEESSHITRGEHRFHMS [F9E] | 1.97 |
| YHSQDRYEFSPHITRGEHRFHMS [S11P] | 3.03 |
| YHSQDRYEFSKHITRGEHRFHMS [S11K] | 1.95 |
| YHSQDRYEFSWHITRGEHRFHMS [S11W] | 2.27 |
| YHSQDRYEFSCHITRGEHRFHMS [S11C] | 1.68 |
| CHSQDRYEFSSHITRGEHRFHMS [Y1C] | 3.03 |
| YHSWDRYEFSSHITRGEHRFHMS [Q4W] | 2.22 |
| YHSTDRYEFSSHITRGEHRFHMS [Q4T] | 1.63 |
| YHSSDRYEFSSHITRGEHRFHMS [Q4S] | 2.42 |
| YHSQDRYEFSSHIQRGEHRFHMS [T14Q] | 1.34 |

| Variant | protein stability index |
| --- | --- |
| YHSQDRYEFSSHIWRGEHRFHMS [T14W] | 2.7 |
| YHSQDRYEFSSHITRGEHNFHMS [R19N] | 2.27 |
| YHSQDRYEFSSHITRDEHRFHMS [G16D] | 2.52 |
| YHSQDRYEFSSHITRCEHRFHMS [G16C] | 2.74 |
| YHSQDRYEFSSHITRREHRFHMS [G16R] | 2.38 |
| YHSQDRYEFSSHITRGEHRFWMS [H21W] | 1.81 |
| YHSQDRYEFSSHITRGEHRFQMS [H21Q] | 2.22 |
| YHSQDRYEFSSHITRGEHRFKMS [H21K] | 1.37 |
| YHSQDRYTFSSHITRGEHRFHMS [E8T] | 3.44 |
| YHSQDRYRFSSHITRGEHRFHMS [E8R] | 1.8 |
| YHSQDRYEFSSHITRGEQRFHMS [H18Q] | 1.72 |
| YHSQDRYEFSSHITRGEKRFHMS [H18K] | 2.22 |
| YHSQDRYEFSSHITRGEERFHMS [H18E] | 1.97 |
| YHSQDRYEFSSHITRGEFRFHMS [H18F] | 2.66 |
| YHSQDRYEFSSHITRGETRFHMS [H18T] | 1.92 |
| YHSQDRVEFSSHITRGEHRFHMS [Y7V] | 2 |
| YHSQDRHEFSSHITRGEHRFHMS [Y7H] | 1.49 |
| YHSQDRYEFSSHITWGEHRFHMS [R15W] | 1.82 |
| YHSQDRYEFSSHITYGEHRFHMS [R15Y] | 2.29 |
| YHSQDRYEFSSHITDGEHRFHMS [R15D] | 2 |
| YHSQDRYEFSSHITHGEHRFHMS [R15H] | 1.73 |
| YHSQDRYEFSSHYTRGEHRFHMS [I13Y] | 1.49 |
| YHSQDRYEFSSHWTRGEHRFHMS [I13W] | 1.71 |
| YHSQDRYEFSSHKTRGEHRFHMS [I13K] | 1.82 |
| YHQQDRYEFSSHITRGEHRFHMS [S3Q] | 2.54 |

| Variant | protein stability index |
| --- | --- |
| YHAQDRYEFSSHITRGEHRFHMS [S3A] | 2.66 |
| YHPQDRYEFSSHITRGEHRFHMS [S3P] | 2.5 |
| YHTQDRYEFSSHITRGEHRFHMS [S3T] | 2.13 |
| YHHQDRYEFSSHITRGEHRFHMS [S3H] | 2.14 |
| YHLQDRYEFSSHITRGEHRFHMS [S3L] | 2.39 |
| YGSQDRYEFSSHITRGEHRFHMS [H2G] | 3.11 |
| YKSQDRYEFSSHITRGEHRFHMS [H2K] | 2.01 |
| YWSQDRYEFSSHITRGEHRFHMS [H2W] | 2.41 |
| YHSQDRYEFSSHITRGEHRSHMS [F20S] | 2.05 |
| YHSQDRYEFSSHITRGEHRKHMS [F20K] | 2.38 |
| YHSQDRYEFSSHITRGEHRNHMS [F20N] | 2.56 |
| YHSQDRYEFMSHITRGEHRFHMS [S10M] | 1.6 |
| YHSQDRYEFSSHITRGQHRFHMS [E17Q] | 2.48 |
| YHSQDRYEFSSHITRGCHRFHMS [E17C] | 3.05 |
| YHSQDRYEFSSHITRGMHRFHMS [E17M] | 1.71 |
| YHSQDRYEFSSHITRGYHRFHMS [E17Y] | 1.7 |
| YHSQDRYEFSSHITRGAHRFHMS [E17A] | 2.75 |
| YHSQDMYEFSSHITRGEHRFHMS [R6M] | 2.65 |
| YHSQDFYEFSSHITRGEHRFHMS [R6F] | 3.44 |
| YHSQDYYEFSSHITRGEHRFHMS [R6Y] | 2.24 |
| YHSQDIYEFSSHITRGEHRFHMS [R6I] | 2.25 |
| YHSQGRYEFSSHITRGEHRFHMS [D5G] | 2.85 |
| YHSQERYEFSSHITRGEHRFHMS [D5E] | 3 |
| YHSQLRYEFSSHITRGEHRFHMS [D5L] | 2.17 |
| YHSQTRYEFSSHITRGEHRFHMS [D5T] | 2.18 |

Variants of: B2
Experiment: as above
Details: c terminus: a fixed tail appended

| Variant | protein stability index |
| --- | --- |
| RSMFTLMAKRIGKDLSNTFAKLEK [E3M] | 2.25 |
| RSHFTLMAKRIGKDLSNTFAKLEK [E3H] | 2.61 |
| RSTFTLMAKRIGKDLSNTFAKLEK [E3T] | 3.43 |
| RSLFTLMAKRIGKDLSNTFAKLEK [E3L] | 4.31 |
| RSYFTLMAKRIGKDLSNTFAKLEK [E3Y] | 2.51 |
| RSKFTLMAKRIGKDLSNTFAKLEK [E3K] | 2.75 |
| RSPFTLMAKRIGKDLSNTFAKLEK [E3P] | 4.75 |
| RSCFTLMAKRIGKDLSNTFAKLEK [E3C] | 2.91 |
| RSRFTLMAKRIGKDLSNTFAKLEK [E3R] | 3.64 |
| RSQFTLMAKRIGKDLSNTFAKLEK [E3Q] | 4.2 |
| RQEFTLMAKRIGKDLSNTFAKLEK [S2Q] | 3.27 |
| RPEFTLMAKRIGKDLSNTFAKLEK [S2P] | 2.07 |
| RAEFTLMAKRIGKDLSNTFAKLEK [S2A] | 1.36 |
| RDEFTLMAKRIGKDLSNTFAKLEK [S2D] | 1.66 |
| RTEFTLMAKRIGKDLSNTFAKLEK [S2T] | 1.9 |
| RFEFTLMAKRIGKDLSNTFAKLEK [S2F] | 2.72 |
| RWEFTLMAKRIGKDLSNTFAKLEK [S2W] | 2.39 |
| RGEFTLMAKRIGKDLSNTFAKLEK [S2G] | 1.51 |
| RCEFTLMAKRIGKDLSNTFAKLEK [S2C] | 3.2 |
| RNEFTLMAKRIGKDLSNTFAKLEK [S2N] | 1.03 |
